Assay results published in doi:10.1101/2024.07.24.604550 (bioRxiv, 2024).

Key:
[1] = molecular target: T1, GST-ECT1 (Arabidopsis, UniProt Q3MK94 1-428); assay: pull-down
T1 sequence (looked up): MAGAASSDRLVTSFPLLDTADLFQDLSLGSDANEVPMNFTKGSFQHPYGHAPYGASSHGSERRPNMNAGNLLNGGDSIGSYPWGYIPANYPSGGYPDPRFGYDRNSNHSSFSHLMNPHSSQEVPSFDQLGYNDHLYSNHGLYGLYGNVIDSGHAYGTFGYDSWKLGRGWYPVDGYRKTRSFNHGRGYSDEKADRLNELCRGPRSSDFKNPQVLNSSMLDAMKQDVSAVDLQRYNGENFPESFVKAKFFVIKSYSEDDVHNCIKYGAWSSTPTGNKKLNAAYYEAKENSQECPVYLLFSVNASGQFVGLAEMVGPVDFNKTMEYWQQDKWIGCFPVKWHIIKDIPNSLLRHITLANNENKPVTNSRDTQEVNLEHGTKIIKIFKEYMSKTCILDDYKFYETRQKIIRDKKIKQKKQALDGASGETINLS

[2] = molecular target: T2, GST-ECT1 (Arabidopsis thaliana (Col-0), UniProt Q3MK94 1-428); assay: EMSA
T2 sequence: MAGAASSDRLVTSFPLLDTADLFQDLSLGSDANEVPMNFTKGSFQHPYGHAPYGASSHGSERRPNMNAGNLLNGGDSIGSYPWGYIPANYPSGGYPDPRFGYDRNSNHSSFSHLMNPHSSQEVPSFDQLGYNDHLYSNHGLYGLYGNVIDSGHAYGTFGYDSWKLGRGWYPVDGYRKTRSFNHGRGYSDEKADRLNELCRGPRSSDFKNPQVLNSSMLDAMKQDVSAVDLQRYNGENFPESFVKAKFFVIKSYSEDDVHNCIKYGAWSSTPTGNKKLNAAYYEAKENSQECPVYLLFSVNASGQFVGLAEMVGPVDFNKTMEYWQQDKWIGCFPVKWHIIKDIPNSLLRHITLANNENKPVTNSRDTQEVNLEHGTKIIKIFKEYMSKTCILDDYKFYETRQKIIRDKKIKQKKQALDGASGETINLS

Binder | binding result [1] | binding result [2]
MBP-ECT1 (natural protein, Arabidopsis, UniProt Q3MK94 1-428, looked up) MAGAASSDRLVTSFPLLDTADLFQDLSLGSDANEVPMNFTKGSFQHPYGHAPYGASSHGSERRPNMNAGNLLNGGDSIGSYPWGYIPANYPSGGYPDPRFGYDRNSNHSSFSHLMNPHSSQEVPSFDQLGYNDHLYSNHGLYGLYGNVIDSGHAYGTFGYDSWKLGRGWYPVDGYRKTRSFNHGRGYSDEKADRLNELCRGPRSSDFKNPQVLNSSMLDAMKQDVSAVDLQRYNGENFPESFVKAKFFVIKSYSEDDVHNCIKYGAWSSTPTGNKKLNAAYYEAKENSQECPVYLLFSVNASGQFVGLAEMVGPVDFNKTMEYWQQDKWIGCFPVKWHIIKDIPNSLLRHITLANNENKPVTNSRDTQEVNLEHGTKIIKIFKEYMSKTCILDDYKFYETRQKIIRDKKIKQKKQALDGASGETINLS | binds | 
UCUUUUGUAAGACUUGUACUCUUUA (ssRNA, m6A at position 9) [UGUm6AA RNA] |  | binds
UCUUUUGUAAGACUUGUACUCUUUA (ssRNA) [UGUAA RNA (unmodified)] |  | no binding
